{
  "source": "IntAct's records for PubMed 18273060",
  "parents": {"B1": {"name": "Growth factor receptor-bound protein 7 (Mus musculus), Q03160 (parent)", "chain": "MELDLSPTHLSSSPEDVCPTPATPPETPPPPDNPPPGDVKRSQPLPIPSSRKLREEEFQATSLPSIPNPFPELCSPPSQKPILGGSSGARGLLPRDSSRLCVVKVYSEDGACRSVEVAAGATARHVCEMLVQRAHALSDESWGLVESHPYLALERGLEDHEFVVEVQEAWPVGGDSRFIFRKNFAKYELFKSPPHTLFPEKMVSSCLDAQTGISHEDLIQNFLNAGSFPEIQGFLQLRGSGRGSGRKLWKRFFCFLRRSGLYYSTKGTSKDPRHLQYVADVNESNVYVVTQGRKLYGMPTDFGFCVKPNKLRNGHKGLHIFCSEDEQSRTCWLAAFRLFKYGVQLYKNYQQAQSRHLRLSYLGSPPLRSVSDNTLVAMDFSGHAGRVIDNPREALSAAMEEAQAWRKKTNHRLSLPTTCSGSSLSAAIHRTQPWFHGRISREESQRLIGQQGLVDGVFLVRESQRNPQGFVLSLCHLQKVKHYLILPSEDEGCLYFSMDEGQTRFTDLLQLVEFHQLNRGILPCLLRHCCARVAL"}},
  "data": [
    {"variants_of": "B1", "conditions": "with elav1_mouse Elavl1, P70372", "values": [
      {"variant": "MELDLSPTHLSSSPEDVCPTPATPPETPPPPDNPPPGDVKRSQPLPIPSSRKLREEEFQATSLPSIPNPFPELCSPPSQKPILGGSSGARGLLPRDSSRLCVVKVYSEDGACRSVEVAAGATARHVCEMLVQRAHALSDESWGLVESHPYLALERGLEDHEFVVEVQEAWPVGGDSRFIFRKNFAKYELFKSPPHTLFPEKMVSSCLDAQTGISHEDLIQNFLNAGSFPEIQGFLQLRGSGRGSGRKLWKRFFCFLRRSGLYYSTKGTSKDPRHLQYVADVNESNVYVVTQGRKLYGMPTDFGFCVKPNKLRNGHKGLHIFCSEDEQSRTCWLAAFRLFKYGVQLYKNYQQAQSRHLRLSYLGSPPLRSVSDNTLVAMDFSGHAGRVIDNPREALSAAMEEAQAWRKKTNHRLSLPTTCSGSSLSAAIHRTQPWFHGRISREESQRLIGQQGLVDGVFLVRESQRNPQGFVLSLCHLQKVKHYLILPSEDEGCLFFSMDEGQTRFTDLLQLVEFHQLNRGILPCLLRHCCARVAL", "note": "[Y495F]", "effect of a mutation on the interaction": "increasing interaction"}
    ]}
  ]
}
